Experimental data from patent US20210388107A1 (BYONDIS B V, published 2021).

B1: KWAR23-LALA (chimeric IgG1, LALA) (antibody)
heavy: not shown
light: QIVLTQSPAIMSASPGEKVTLTCSASSSVSSSYLYWYQQKPGSSPKLWIYSTSNLASGVPARFSGSGSGTSYSLTISSMEAEDAASYFCHQWSSYPRTFGAGTKLELKRTVAAPSVFIFPPSDEQLKSGTASVVCLLNNFYPREAKVQWKVDNALQSGNSQESVTEQDSKDSTYSLSSTLTLSKADYEKHKVYACEVTHQGLSSPVTKSFNRGEC
notes: chimeric human IgG1 LALA, kappa; also called KWAR23huIgG1LALA
B2: humanized anti-SIRPα antibody 6 (antibody, human IgG1, kappa, L234A L235A, V domains shown)
VH: RQLVESGGGLVQPGGSLRLSCTASGFSLSSHGISWVRQAPGKGLEYIGTIGTGVITYFASWAKGRFTGSKTSSTAYMELSSLRSEDTAVYFCARGSAWNDPFDPWGQGTLVTVSS
VL: DIVMTQSPSSLSASVGDRVTITCQASQSVYGNNDLAWYQQKPGQAPKLLIYLASTLATGVPSRFSGSGSGTDFTLTISSLQPEDFATYYCLGGGDDEADNTFGQGTKVEIKR
notes: human IgG1 LALA, kappa; also called mAb 6

Columns and labels:
[1] = target: T1, human SIRPα1 expressed on cells (human, UniProt P78324 31-504); experiment: flow cytometry, ExpiCHO-S cells
T1 construct: whole, on cells; also called huSIRPα1; ExpiCHO-S (huSIRPα1)
Procedure, shortened: (§1)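 After 30 min at 4° C., cells were washed and stained with APC-labelled anti-human IgG F(ab′)₂ (1:6,000) for 30 min at 4° C. Read-out was median fluorescence intensity for U937 and mean fluorescence intensity for ExpiCHO-S cells. EC₅₀ (μg/ml) came from a four-parameter logistic fit.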

[2] = target: T2, human SIRPαBIT expressed on cells (human, UniProt P78324 31-504); experiment: flow cytometry, ExpiCHO-S cells
T2 construct: endogenous on U937 cells or transiently expressed on ExpiCHO-S cells; in the SHP-1 assay a ProLink-tagged form on Jurkat cells; also called huSIRPαBIT; U937 cells (huSIRPαBIT)
Procedure, shortened: as §1

[3] = target: T2, human SIRPαBIT expressed on cells; experiment: cell-based or functional assay

T2 sequence (P78324 31-504 limits assumed): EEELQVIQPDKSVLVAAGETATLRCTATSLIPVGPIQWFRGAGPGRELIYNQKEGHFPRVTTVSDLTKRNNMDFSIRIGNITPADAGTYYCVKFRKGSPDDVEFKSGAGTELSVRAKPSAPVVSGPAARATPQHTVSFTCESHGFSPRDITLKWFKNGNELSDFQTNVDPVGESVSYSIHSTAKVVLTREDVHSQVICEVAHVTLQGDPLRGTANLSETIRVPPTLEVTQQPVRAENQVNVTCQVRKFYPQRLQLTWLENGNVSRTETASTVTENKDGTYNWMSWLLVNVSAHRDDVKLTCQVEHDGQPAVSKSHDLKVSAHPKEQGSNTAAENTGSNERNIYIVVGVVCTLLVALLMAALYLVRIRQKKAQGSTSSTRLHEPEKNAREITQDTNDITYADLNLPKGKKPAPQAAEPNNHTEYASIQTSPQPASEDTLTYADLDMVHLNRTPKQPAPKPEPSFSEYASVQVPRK
T1 sequence (P78324 other isoform, or with tags, fused parts or gaps limits assumed): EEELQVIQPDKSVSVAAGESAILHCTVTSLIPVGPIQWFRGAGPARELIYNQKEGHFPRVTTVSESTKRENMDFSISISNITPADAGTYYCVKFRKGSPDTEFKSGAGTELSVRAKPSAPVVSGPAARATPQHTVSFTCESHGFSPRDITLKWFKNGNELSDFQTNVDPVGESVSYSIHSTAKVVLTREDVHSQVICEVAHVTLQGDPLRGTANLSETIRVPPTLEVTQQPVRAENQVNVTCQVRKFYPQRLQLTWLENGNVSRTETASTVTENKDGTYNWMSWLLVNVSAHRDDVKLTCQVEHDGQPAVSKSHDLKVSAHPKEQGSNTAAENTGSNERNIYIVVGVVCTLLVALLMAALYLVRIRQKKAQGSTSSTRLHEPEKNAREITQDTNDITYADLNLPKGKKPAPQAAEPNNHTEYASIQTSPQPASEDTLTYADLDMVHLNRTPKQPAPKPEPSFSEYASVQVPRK

Binder	EC50 [1] [µg/mL]	EC50 [2] [µg/mL]	IC50 (read off the curve), CD47-driven SHP-1 recruitment to SIRPαBIT [3] [µg/mL]
B1	0.14	0.16	
B2	0.06	0.01	~0.2
